Molecular target: Calmodulin (recombinant CaM) (UniProt P0DP23)
Experiment: cross-linking; photoaffinity labeling (PAL): 5 μM CaM and 5 μM Bpa-Mover(203-221), 10 mM HEPES pH 7.2, 150 mM KCl, 5 mM DTT, 2 h RT in the dark, with 100 μM Ca2+, UV irradiation; photoadducts read by SDS-PAGE and MALDI-TOF-MS

- stoichiometry N (peptide per CaM): 1
Substance: Bpa-Mover(203-221), photoreactive variant of the rat Mover peptide 203-221 (from UniProt A8WCF8 203-221)

— publication PMC6856015
